# Assay results from article PMC5344332, “A new mode of DNA binding distinguishes Capicua from other HMG-box factors and explains its mutation patterns in cancer”.
# Key:
# Hs CIC HMG-C1-His [1] = target: T1, Hs CIC HMG-C1-His (Homo sapiens, UniProt Q96RK0-2;Q96RK0-2 188-288;1451-1527); experiment: EMSA; 60 mM Hepes pH 7.9, 20 mM Tris-HCl pH 7.9, 300 mM KCl, 5 mM EDTA, 5 mM DTT, 12% glycerol, 1 ug poly(dI-dC), 1 ug BSA, ~1 ng probe in 20 ul; 20 min on ice; 5% native PAGE in 0.5X TBE at 4 C; settings: protein: recombinant; tags: His; copies: 1;1; label: 32P
# T1 sequence (Q96RK0 1097-1197, chain 1 of 2): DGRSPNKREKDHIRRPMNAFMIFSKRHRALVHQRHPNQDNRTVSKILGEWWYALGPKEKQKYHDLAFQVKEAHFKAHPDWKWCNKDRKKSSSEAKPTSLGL
# T1 sequence (Q96RK0 2360-2436, chain 2 of 2): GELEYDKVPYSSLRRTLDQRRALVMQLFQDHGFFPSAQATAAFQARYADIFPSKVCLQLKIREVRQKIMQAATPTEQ
# Hs CIC HMG-C1-His [2] = target: T1, Hs CIC HMG-C1-His; experiment: EMSA; similar affinity to longer probes; 60 mM Hepes pH 7.9, 20 mM Tris-HCl pH 7.9, 300 mM KCl, 5 mM EDTA, 5 mM DTT, 12% glycerol, 1 ug poly(dI-dC), 1 ug BSA, ~1 ng probe in 20 ul; 20 min on ice; 5% native PAGE in 0.5X TBE at 4 C; settings: protein: recombinant; tags: His; copies: 1;1; label: 32P
Binder,binding result (Hs CIC HMG-C1-His [1]),binding result (Hs CIC HMG-C1-His [2])
CBS syn (dsDNA) DNA 1: GGGAATTAAGTTGAATGAATAGGCTGGGCC DNA 2: GGCCCAGCCTATTCATTCAACTTAATTCCC,binds,
ETV5 18-bp CBS (dsDNA) DNA 1: GGTTATGAATGAAAAACC DNA 2: GGTTTTTCATTCATAACC,,binds
